In the series the target is T1, KmtR (UniProt O53838 1-130).
T1 sequence: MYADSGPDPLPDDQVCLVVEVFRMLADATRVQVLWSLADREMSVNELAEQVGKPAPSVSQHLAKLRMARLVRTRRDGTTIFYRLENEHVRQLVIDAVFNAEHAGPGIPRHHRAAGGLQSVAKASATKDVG
The series can be described thus: fluorescence anisotropy.

B1: PRv0286 32-mer (Rv0826 promoter) (dsDNA)
DNA 1: TCCATAGTGACAACGTGCGTAGTCAGAATTCG
DNA 2: CGAATTCTGACTACGCACGTTGTCACTATGGA
Regarding B1, the binding result was “no binding”.
